Results published in publication PMC5458804 (Nature cell biology, 2017).
Changes are numbered by the printed parent chain. Names may count otherwise. One block for each molecule: values may come before it.

Legend:
[1] = target: p60N/p80C heterodimer (mouse) (UniProt Q9WV86); test: AUC
[2] = target: p60N/p80C heterodimer (mouse) (UniProt Q9WV86); test: crystal structure
[3] = target: p80C (C-terminal domain of katanin p80) (mouse, UniProt Q8BG40 481-658); test: AUC
p80C-S538L = p80C-S538L (mouse, UniProt Q8BG40 481-658, S538L); test: AUC
p80C-Y574A = p80C-Y574A (mouse, UniProt Q8BG40 481-658, Y574A); test: AUC
p80C-R615A = p80C-R615A (mouse, UniProt Q8BG40 481-658, R615A); test: AUC
Sequence of p80C-R615A (Q8BG40 481-658 R615A): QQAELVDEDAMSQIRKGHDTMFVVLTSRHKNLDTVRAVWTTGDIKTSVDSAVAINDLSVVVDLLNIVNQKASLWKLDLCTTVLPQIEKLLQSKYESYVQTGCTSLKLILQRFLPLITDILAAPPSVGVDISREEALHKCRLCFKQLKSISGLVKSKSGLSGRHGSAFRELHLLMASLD

Sequence of p80C (C-terminal domain of katanin p80) (Q8BG40 481-658): as the sequence (Q8BG40 481-658 R615A) above, with A135R counted along it
Sequence of p80C-Y574A (Q8BG40 481-658 Y574A): as the sequence (Q8BG40 481-658 R615A) above, with Y94A, A135R counted along it
Sequence of p80C-S538L (Q8BG40 481-658 S538L): as the sequence (Q8BG40 481-658 R615A) above, with S58L, A135R counted along it

- Kd [1]: 9 µM
Molecule: TAMRA-labeled ASPMp peptide

- stoichiometry N [2]: 1
Molecule: ASPMp (peptide corresponding to the third repeat of ASPM, as crystallised)

- binding result [3]: binds
- binding result (p80C-S538L): binds
- binding result (p80C-Y574A): binds
- binding result (p80C-R615A): binds
B1: p60N (N-terminal domain of katanin p60) (domain or fragment)
chain: MSLQMIVENVKLAREYALLGNYDSAMVYYQGVLDQMNKYLYSVKDTHLRQKWQQVWQEINVEAKQVKDIMKTLESFKL

- binding result [3]: binds
B2: p60N-L18A (domain or fragment)
chain: B1 chain with L18A

- binding result [3]: binds
B3: p60N-L19A (domain or fragment)
chain: B1 chain with L19A
